Blank lines part the entries; values can stand above or below the molecule they belong to.
What was measured:
[1] = target: T1, FjGH65A (Flavobacterium johnsoniae, UniProt A5FBJ5, E472Q); experiment: hydrolysis activity; assay type: biochemical; conditions: general acid catalyst mutant
T1 construct: gene Fjoh_4428; residues 24-681, signal peptide removed, N-terminal His6 tag (pET28a), E. coli BL21(DE3); hexamer (433 kDa by gel filtration)

[2] = target: T2, FjGH65A (Flavobacterium johnsoniae, UniProt A5FBJ5, E616Q); experiment: hydrolysis activity; assay type: biochemical; conditions: general base catalyst mutant
T2 construct: gene Fjoh_4428; residues 24-681, signal peptide removed, N-terminal His6 tag (pET28a), E. coli BL21(DE3); hexamer (433 kDa by gel filtration)

[3] = target: T3, FjGH65A (Flavobacterium johnsoniae, UniProt A5FBJ5); experiment: X-ray crystal structure of the complex, […] Å; assay type: binding; conditions: crystal cryoprotected with 30% (w/v) glucose; four sites: subsites -1, +1, +2 and linker region
T3 construct: gene Fjoh_4428; residues 24-681, signal peptide removed, N-terminal His6 tag (pET28a), E. coli BL21(DE3); hexamer (433 kDa by gel filtration)

[4] = target: FjGH65A (Fjoh_4428), GH65 α-1,2-glucosidase from Flavobacterium johnsoniae (Flavobacterium johnsoniae); experiment: SEC; gel filtration on HiPrep 16/60 Sephacryl S-200 HR, 20 mM sodium citrate buffer (pH 6.0) with 150 mM NaCl; column calibrated with thyroglobulin, ferritin, aldolase, conalbumin and ovalbumin
[5] = target: FjGH65A (Fjoh_4428), GH65 α-1,2-glucosidase from Flavobacterium johnsoniae (Flavobacterium johnsoniae); experiment: crystal structure; space group C2, three monomers (MolA, MolB, MolC) in the asymmetric unit; hexamer by the crystallographic two-fold axis, PISA analysis; native 1.54 Å and glucose complex 1.40 Å
[6] = substrate: OC[C@H]1O[C@H](F)[C@H](O)[C@@H](O)[C@@H]1O; experiment: hydrolysis kinetics (assay details for this substrate not stated); assay type: biochemical, Flavobacterium johnsoniae; conditions: kinetic conditions for this substrate not stated
Text: hydrolysis kinetics (assay details for this substrate not stated) on FjGH65A

T1 sequence (A5FBJ5 24-681 E472Q): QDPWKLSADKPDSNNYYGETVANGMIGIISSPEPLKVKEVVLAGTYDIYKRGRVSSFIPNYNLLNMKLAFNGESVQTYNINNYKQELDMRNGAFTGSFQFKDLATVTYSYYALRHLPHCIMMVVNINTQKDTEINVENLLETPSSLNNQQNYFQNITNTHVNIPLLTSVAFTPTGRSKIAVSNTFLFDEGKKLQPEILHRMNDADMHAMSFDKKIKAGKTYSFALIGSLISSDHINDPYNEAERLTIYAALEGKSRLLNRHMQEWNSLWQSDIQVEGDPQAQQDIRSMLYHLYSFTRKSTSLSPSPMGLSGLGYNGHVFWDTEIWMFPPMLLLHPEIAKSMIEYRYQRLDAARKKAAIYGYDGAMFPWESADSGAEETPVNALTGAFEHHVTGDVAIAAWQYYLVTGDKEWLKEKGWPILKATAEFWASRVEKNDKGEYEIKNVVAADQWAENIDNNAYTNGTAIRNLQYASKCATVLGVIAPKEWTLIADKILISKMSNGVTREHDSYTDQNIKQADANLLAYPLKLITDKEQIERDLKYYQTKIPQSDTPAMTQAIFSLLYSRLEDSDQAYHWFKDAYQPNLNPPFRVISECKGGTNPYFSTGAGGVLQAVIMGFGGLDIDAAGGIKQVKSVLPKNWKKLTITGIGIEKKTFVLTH
T2 sequence (A5FBJ5 24-681 E616Q): as the sequence (A5FBJ5 24-681 E472Q) above, with Q449E, E593Q counted along it

activity (% of wild type) [1]: < 0.1% | activity (% of wild type) [2]: < 0.1%
Molecule: OC[C@H]1O[C@H](O[C@H]2C(O)O[C@H](CO)[C@@H](O)[C@@H]2O)[C@H](O)[C@@H](O)[C@@H]1O (mixture of isomers) [Kojibiose]

stoichiometry N [4]: 6
Molecule: FjGH65A (Fjoh_4428), GH65 α-1,2-glucosidase from Flavobacterium johnsoniae (enzyme)
stoichiometry N [5]: 6

The next lines start with the molecule.

Molecule: OC[C@H]1O[C@@H](O)[C@H](O)[C@@H](O)[C@@H]1O [β-glucose]
X-ray crystal structure of the complex, 1.40 Å [3]: Each monomer of FjGH65A binds four β-glucose molecules

B1: FjGH65A (Flavobacterium johnsoniae UW101) (protein)
chain: QDPWKLSADKPDSNNYYGETVANGMIGIISSPEPLKVKEVVLAGTYDIYKRGRVSSFIPNYNLLNMKLAFNGESVQTYNINNYKQELDMRNGAFTGSFQFKDLATVTYSYYALRHLPHCIMMVVNINTQKDTEINVENLLETPSSLNNQQNYFQNITNTHVNIPLLTSVAFTPTGRSKIAVSNTFLFDEGKKLQPEILHRMNDADMHAMSFDKKIKAGKTYSFALIGSLISSDHINDPYNEAERLTIYAALEGKSRLLNRHMQEWNSLWQSDIQVEGDPQAQQDIRSMLYHLYSFTRKSTSLSPSPMGLSGLGYNGHVFWDTEIWMFPPMLLLHPEIAKSMIEYRYQRLDAARKKAAIYGYDGAMFPWESADSGAEETPVNALTGAFEHHVTGDVAIAAWQYYLVTGDKEWLKEKGWPILKATAEFWASRVEKNDKGEYEIKNVVAADEWAENIDNNAYTNGTAIRNLQYASKCATVLGVIAPKEWTLIADKILISKMSNGVTREHDSYTDQNIKQADANLLAYPLKLITDKEQIERDLKYYQTKIPQSDTPAMTQAIFSLLYSRLEDSDQAYHWFKDAYQPNLNPPFRVISECKGGTNPYFSTGAGGVLQAVIMGFGGLDIDAAGGIKQVKSVLPKNWKKLTITGIGIEKKTFVLTH
notes: residues 24-681, signal peptide removed, N-terminal His6 tag (pET28a), E. coli BL21(DE3); hexamer (433 kDa by gel filtration)
Km [6]: 3.1 ± 0.2 mM | kcat [6]: 56.1 ± 1.8 s⁻¹ | kcat/Km [6]: 18100 M⁻¹ s⁻¹

— paper PMC8626586, “Structure of a bacterial α-1,2-glucosidase defines mechanisms of hydrolysis and substrate specificity in GH65 family hydrolases” (The Journal of Biological Chemistry, 2021)
